Data as given in the supplement of paper PMC9112550, “Optimization of the antimicrobial peptide Bac7 by deep mutational scanning” (BMC Biology, 2022).

system: Escherichia coli TOP10; experiment: shrunken log2 fold change of peptide-encoding DNA abundance (4.5 h post-induction vs induction); higher = less antimicrobial activity (less host growth inhibition); details: time post-induction: 4.5 h; library: site-saturation at positions 5, 18, 19, 20
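Note: peptides expressed intracellularly from a pBAD plasmid library in pooled LB shake-flask culture, induced with 0.3% L-arabinose, DNA abundance read by NGS, three biological replicates, DESeq2 with apeglm shrinkage.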

Sequence | shrunken log2 fold change
RRIRPRPPRLPRPRPRPSKFPRP | -0.494
RRIRLRPPRLPRPRPRPTPPPRP | 0.648
RRIRQRPPRLPRPRPRPTVGPRP | -0.161
RRIRHRPPRLPRPRPRPPLPPRP | 0.476
RRIRPRPPRLPRPRPRPKYGPRP | -0.491
RRIRCRPPRLPRPRPRPTYEPRP | -0.717
RRIRSRPPRLPRPRPRPWHCPRP | -0.403
RRIRRRPPRLPRPRPRPSHGPRP | 0.145
RRIRVRPPRLPRPRPRPIHAPRP | 0.098
RRIRIRPPRLPRPRPRPPGPPRP | 0.575
RRIRFRPPRLPRPRPRPTGLPRP | -0.118
RRIRIRPPRLPRPRPRPMNDPRP | -0.00303
RRIRWRPPRLPRPRPRPPLVPRP | 0.443
RRIRKRPPRLPRPRPRPWCNPRP | -0.204
RRIRQRPPRLPRPRPRPRHKPRP | 0.0456
RRIRMRPPRLPRPRPRPNTMPRP | 0.0324
RRIRQRPPRLPRPRPRPFITPRP | -0.569
RRIRHRPPRLPRPRPRPEYKPRP | -0.467
RRIRKRPPRLPRPRPRPAIPPRP | 0.000942
RRIRWRPPRLPRPRPRPNWFPRP | 0.156
RRIRGRPPRLPRPRPRPWSQPRP | 0.142
RRIRWRPPRLPRPRPRPFQRPRP | 0.00938
RRIRLRPPRLPRPRPRPSSEPRP | 0.0265
RRIRVRPPRLPRPRPRPWTNPRP | -0.584
RRIRNRPPRLPRPRPRPQTRPRP | 0.0246

Sequence | shrunken log2 fold change
RRIRWRPPRLPRPRPRPNINPRP | -0.429
RRIRSRPPRLPRPRPRPDQLPRP | -0.167
RRIRDRPPRLPRPRPRPCEHPRP | -0.133
RRIRSRPPRLPRPRPRPWDNPRP | 0.0157
RRIRHRPPRLPRPRPRPNELPRP | 0.031
RRIRLRPPRLPRPRPRPFGDPRP | -0.186
RRIRGRPPRLPRPRPRPCSRPRP | 0.0838
RRIRKRPPRLPRPRPRPMQKPRP | -0.00412
RRIRMRPPRLPRPRPRPCVFPRP | -0.065
RRIRPRPPRLPRPRPRPKHEPRP | 0.0756
RRIRGRPPRLPRPRPRPKWIPRP | 0.118
RRIRCRPPRLPRPRPRPSSGPRP | -0.011
RRIRRRPPRLPRPRPRPPYRPRP | 0.113
RRIRDRPPRLPRPRPRPADIPRP | -0.00114
RRIRHRPPRLPRPRPRPTQIPRP | 0.51
RRIRYRPPRLPRPRPRPTGWPRP | 0.088
RRIRHRPPRLPRPRPRPGEFPRP | -0.00759
RRIRWRPPRLPRPRPRPCMKPRP | 0.00396
RRIRARPPRLPRPRPRPTPYPRP | -0.0244
RRIRYRPPRLPRPRPRPSDNPRP | -0.827
RRIRVRPPRLPRPRPRPAHHPRP | -0.011
RRIRVRPPRLPRPRPRPKPFPRP | 0.00969
RRIRRRPPRLPRPRPRPFGVPRP | 0.0764
RRIRDRPPRLPRPRPRPGCCPRP | 0.617
RRIRCRPPRLPRPRPRPGNYPRP | -0.516

Sequence | shrunken log2 fold change
RRIRRRPPRLPRPRPRPTGYPRP | 0.246
RRIRWRPPRLPRPRPRPLCHPRP | -0.0785
RRIRHRPPRLPRPRPRPLDMPRP | -0.0339
RRIRLRPPRLPRPRPRPAIRPRP | -0.111
RRIRCRPPRLPRPRPRPYLYPRP | -1.01
RRIRRRPPRLPRPRPRPYRHPRP | -0.265
RRIRCRPPRLPRPRPRPQINPRP | -0.685
RRIRLRPPRLPRPRPRPDCYPRP | -0.558
RRIRQRPPRLPRPRPRPSFSPRP | -0.443
RRIRHRPPRLPRPRPRPVEPPRP | 0.109
RRIRRRPPRLPRPRPRPWYLPRP | -0.313
RRIRKRPPRLPRPRPRPVRFPRP | 0.397
RRIRQRPPRLPRPRPRPPPPPRP | 0.822
RRIRPRPPRLPRPRPRPRWHPRP | 0.186
RRIRHRPPRLPRPRPRPEPKPRP | -0.0206
RRIRMRPPRLPRPRPRPFQPPRP | 0.0604
RRIRKRPPRLPRPRPRPESEPRP | 2.93
RRIRSRPPRLPRPRPRPIGIPRP | -0.67
RRIRYRPPRLPRPRPRPRKPPRP | 0.0457
RRIRQRPPRLPRPRPRPAVWPRP | 0.939
RRIRCRPPRLPRPRPRPIYDPRP | -0.867
RRIRIRPPRLPRPRPRPEGDPRP | 0.574
RRIRGRPPRLPRPRPRPTCTPRP | 0.975
RRIRIRPPRLPRPRPRPPADPRP | 0.271
RRIRYRPPRLPRPRPRPGYCPRP | -0.235
